Experimental findings from patent US20180185467A1 (Harvard, published 2018) are described below.

The assay concerns the target T1, GST-NS3 of YFV (strain 17D) (Yellow Fever virus, strain 17D, UniProt P03314 1485-2107).
T1 construct: domain: NS3; also called YFV NS3; NS3 of Yellow Fever virus
T1 sequence: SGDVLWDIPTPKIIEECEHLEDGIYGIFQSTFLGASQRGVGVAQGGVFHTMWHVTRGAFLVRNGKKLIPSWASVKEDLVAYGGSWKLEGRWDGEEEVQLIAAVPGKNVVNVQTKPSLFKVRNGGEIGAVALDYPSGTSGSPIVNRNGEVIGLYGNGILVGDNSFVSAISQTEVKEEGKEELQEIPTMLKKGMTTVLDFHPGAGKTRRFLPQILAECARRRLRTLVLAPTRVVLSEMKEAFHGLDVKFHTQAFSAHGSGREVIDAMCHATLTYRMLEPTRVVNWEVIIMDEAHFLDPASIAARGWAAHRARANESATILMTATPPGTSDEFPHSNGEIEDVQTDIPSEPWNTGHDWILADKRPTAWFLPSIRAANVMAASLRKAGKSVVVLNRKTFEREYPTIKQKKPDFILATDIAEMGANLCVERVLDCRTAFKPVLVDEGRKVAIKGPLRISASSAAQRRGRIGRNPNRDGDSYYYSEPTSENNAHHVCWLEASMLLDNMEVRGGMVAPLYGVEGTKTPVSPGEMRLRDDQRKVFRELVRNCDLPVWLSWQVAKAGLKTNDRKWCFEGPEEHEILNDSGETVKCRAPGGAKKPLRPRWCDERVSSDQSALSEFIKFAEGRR
The assay can be described thus: GST pull-down in 293T cells, immunoblot with anti-14-3-3ε.

B1: endogenous 14-3-3ε (other)
chain: MDDREDLVYQAKLAEQAERYDEMVESMKKVAGMDVELTVEERNLLSVAYKNVIGARRASWRIISSIEQKEENKGGEDKLKMIREYRQMVETELKLICCDILDVLDKHLIPAANTGESKVFYYKMKGDYHRYLAEFATGNDRKEAAENSLVAYKAASDIAMTELPPTHPIRLGLALNFSVFYYEILNSPDRACRLAKAAFDDAIAELDTLSEESYKDSTLIMQLLRDNLTLWTSDMQGDGEEQNKEALQDVEDENQ
For B1, the binding result is “no binding”.
